# Measured values from patent US20250388637A1.
# Molecular target: Recombinant human PDGF-B (human) (UniProt P01127)
substance,measurement,value
MBP-GCN4-Prodomain,"inhibition of PDGF-B stimulated PDGFR-β phosphorylation, BHK-21/PDGFR-β cells",16%
